For 10 proteins, Fold Change in Activity of PQ Hydrolysis Relative to Wild Type Kumamolysin-As results are on record in patent US10487318.

Sequences and labels used below:
T1: fluorescently quenched α-gliadin hexapeptide analogue QXL520-PQPQLP-K(5-FAM)-NH2
T1 chain: PQPQLP

B1: Kumamolysin-As S262K, D293N, N291D, G319S, D358G, D368H (protein)
chain: MSDMEKPWKEGEEARAVLQGHARAQAPQAVDKGPVAGDERMAVTVVLRRQRAGELAAHVERQAAIAPHAREHLKREAFAASHGASLDDFAELRRFADAHGLALDRANVAAGTAVLSGPVDAINRAFGVELRHFDHPDGSYRSYLGEVTVPASIAPMIEAVLGLDTRPVARPHFRMQRRAEGGFEARSQAAAPTAYTPLDVAQAYQFPEGLDGQGQCIAIIELGGGYDEASLAQYFASLGVPAPQVVSVSVDGASNQPTGDPKGPDGEVELDIEVAGALAPGAKFAVYFAPDTNAGFLDAITTAIHDPTLKPSVVSISWSGPEDSWTSAAIAAMNRAFLDAAALGVTVLAAAGDSGSTGGEQDGLYHVHFPAASPYVLACGGTRLVASGGRIAQETVWNDGPDGGATGGGVSRIFPLPAWQEHANVPPSANPGASSGRGVPDLAGNADPATGYEVVIDGEATVIGGTSAVAPLFAALVARINQKLGKAVGYLNPTLYQLPADVFHDITEGNNDIANRAQIYQAGPGWDPCTGLGSPIGVRLLQALLPSASQPQPGSTENLYFQSGALEHHHHHH
B2: Kumamolysin-As D293A (protein)
chain: MSDMEKPWKEGEEARAVLQGHARAQAPQAVDKGPVAGDERMAVTVVLRRQRAGELAAHVERQAAIAPHAREHLKREAFAASHGASLDDFAELRRFADAHGLALDRANVAAGTAVLSGPVDAINRAFGVELRHFDHPDGSYRSYLGEVTVPASIAPMIEAVLGLDTRPVARPHFRMQRRAEGGFEARSQAAAPTAYTPLDVAQAYQFPEGLDGQGQCIAIIELGGGYDEASLAQYFASLGVPAPQVVSVSVDGASNQPTGDPSGPDGEVELDIEVAGALAPGAKFAVYFAPNTAAGFLDAITTAIHDPTLKPSVVSISWGGPEDSWTSAAIAAMNRAFLDAAALGVTVLAAAGDSGSTDGEQDGLYHVDFPAASPYVLACGGTRLVASGGRIAQETVWNDGPDGGATGGGVSRIFPLPAWQEHANVPPSANPGASSGRGVPDLAGNADPATGYEVVIDGEATVIGGTSAVAPLFAALVARINQKLGKAVGYLNPTLYQLPADVFHDITEGNNDIANRAQIYQAGPGWDPCTGLGSPIGVRLLQALLPSASQPQPGSTENLYFQSGALEHHHHHH
B3: Kumamolysin-As D358N (protein)
chain: MSDMEKPWKEGEEARAVLQGHARAQAPQAVDKGPVAGDERMAVTVVLRRQRAGELAAHVERQAAIAPHAREHLKREAFAASHGASLDDFAELRRFADAHGLALDRANVAAGTAVLSGPVDAINRAFGVELRHFDHPDGSYRSYLGEVTVPASIAPMIEAVLGLDTRPVARPHFRMQRRAEGGFEARSQAAAPTAYTPLDVAQAYQFPEGLDGQGQCIAIIELGGGYDEASLAQYFASLGVPAPQVVSVSVDGASNQPTGDPSGPDGEVELDIEVAGALAPGAKFAVYFAPNTDAGFLDAITTAIHDPTLKPSVVSISWGGPEDSWTSAAIAAMNRAFLDAAALGVTVLAAAGDSGSTNGEQDGLYHVDFPAASPYVLACGGTRLVASGGRIAQETVWNDGPDGGATGGGVSRIFPLPAWQEHANVPPSANPGASSGRGVPDLAGNADPATGYEVVIDGEATVIGGTSAVAPLFAALVARINQKLGKAVGYLNPTLYQLPADVFHDITEGNNDIANRAQIYQAGPGWDPCTGLGSPIGVRLLQALLPSASQPQPGSTENLYFQSGALEHHHHHH
B4: Kumamolysin-As V119D, S262K, D293T, N291D, G319S, D358G, D368H (protein)
chain: MSDMEKPWKEGEEARAVLQGHARAQAPQAVDKGPVAGDERMAVTVVLRRQRAGELAAHVERQAAIAPHAREHLKREAFAASHGASLDDFAELRRFADAHGLALDRANVAAGTAVLSGPDDAINRAFGVELRHFDHPDGSYRSYLGEVTVPASIAPMIEAVLGLDTRPVARPHFRMQRRAEGGFEARSQAAAPTAYTPLDVAQAYQFPEGLDGQGQCIAIIELGGGYDEASLAQYFASLGVPAPQVVSVSVDGASNQPTGDPKGPDGEVELDIEVAGALAPGAKFAVYFAPDTTAGFLDAITTAIHDPTLKPSVVSISWSGPEDSWTSAAIAAMNRAFLDAAALGVTVLAAAGDSGSTGGEQDGLYHVHFPAASPYVLACGGTRLVASGGRIAQETVWNDGPDGGATGGGVSRIFPLPAWQEHANVPPSANPGASSGRGVPDLAGNADPATGYEVVIDGEATVIGGTSAVAPLFAALVARINQKLGKAVGYLNPTLYQLPADVFHDITEGNNDIANRAQIYQAGPGWDPCTGLGSPIGVRLLQALLPSASQPQPGSTENLYFQSGALEHHHHHH
B5: Kumamolysin-As D358G, D368H (protein)
chain: MSDMEKPWKEGEEARAVLQGHARAQAPQAVDKGPVAGDERMAVTVVLRRQRAGELAAHVERQAAIAPHAREHLKREAFAASHGASLDDFAELRRFADAHGLALDRANVAAGTAVLSGPVDAINRAFGVELRHFDHPDGSYRSYLGEVTVPASIAPMIEAVLGLDTRPVARPHFRMQRRAEGGFEARSQAAAPTAYTPLDVAQAYQFPEGLDGQGQCIAIIELGGGYDEASLAQYFASLGVPAPQVVSVSVDGASNQPTGDPSGPDGEVELDIEVAGALAPGAKFAVYFAPNTDAGFLDAITTAIHDPTLKPSVVSISWGGPEDSWTSAAIAAMNRAFLDAAALGVTVLAAAGDSGSTGGEQDGLYHVHFPAASPYVLACGGTRLVASGGRIAQETVWNDGPDGGATGGGVSRIFPLPAWQEHANVPPSANPGASSGRGVPDLAGNADPATGYEVVIDGEATVIGGTSAVAPLFAALVARINQKLGKAVGYLNPTLYQLPADVFHDITEGNNDIANRAQIYQAGPGWDPCTGLGSPIGVRLLQALLPSASQPQPGSTENLYFQSGALEHHHHHH
B6: Kumamolysin-As G319S, S354N, D358G, D368H (protein)
chain: MSDMEKPWKEGEEARAVLQGHARAQAPQAVDKGPVAGDERMAVTVVLRRQRAGELAAHVERQAAIAPHAREHLKREAFAASHGASLDDFAELRRFADAHGLALDRANVAAGTAVLSGPVDAINRAFGVELRHFDHPDGSYRSYLGEVTVPASIAPMIEAVLGLDTRPVARPHFRMQRRAEGGFEARSQAAAPTAYTPLDVAQAYQFPEGLDGQGQCIAIIELGGGYDEASLAQYFASLGVPAPQVVSVSVDGASNQPTGDPSGPDGEVELDIEVAGALAPGAKFAVYFAPNTDAGFLDAITTAIHDPTLKPSVVSISWSGPEDSWTSAAIAAMNRAFLDAAALGVTVLAAAGDNGSTGGEQDGLYHVHFPAASPYVLACGGTRLVASGGRIAQETVWNDGPDGGATGGGVSRIFPLPAWQEHANVPPSANPGASSGRGVPDLAGNADPATGYEVVIDGEATVIGGTSAVAPLFAALVARINQKLGKAVGYLNPTLYQLPADVFHDITEGNNDIANRAQIYQAGPGWDPCTGLGSPIGVRLLQALLPSASQPQPGSTENLYFQSGALEHHHHHH
B7: Kumamolysin-As G319S, D368S (protein)
chain: MSDMEKPWKEGEEARAVLQGHARAQAPQAVDKGPVAGDERMAVTVVLRRQRAGELAAHVERQAAIAPHAREHLKREAFAASHGASLDDFAELRRFADAHGLALDRANVAAGTAVLSGPVDAINRAFGVELRHFDHPDGSYRSYLGEVTVPASIAPMIEAVLGLDTRPVARPHFRMQRRAEGGFEARSQAAAPTAYTPLDVAQAYQFPEGLDGQGQCIAIIELGGGYDEASLAQYFASLGVPAPQVVSVSVDGASNQPTGDPSGPDGEVELDIEVAGALAPGAKFAVYFAPNTDAGFLDAITTAIHDPTLKPSVVSISWSGPEDSWTSAAIAAMNRAFLDAAALGVTVLAAAGDSGSTDGEQDGLYHVSFPAASPYVLACGGTRLVASGGRIAQETVWNDGPDGGATGGGVSRIFPLPAWQEHANVPPSANPGASSGRGVPDLAGNADPATGYEVVIDGEATVIGGTSAVAPLFAALVARINQKLGKAVGYLNPTLYQLPADVFHDITEGNNDIANRAQIYQAGPGWDPCTGLGSPIGVRLLQALLPSASQPQPGSTENLYFQSGALEHHHHHH
B8: Kumamolysin-As N291D, G319S, D358G, D368H (protein)
chain: MSDMEKPWKEGEEARAVLQGHARAQAPQAVDKGPVAGDERMAVTVVLRRQRAGELAAHVERQAAIAPHAREHLKREAFAASHGASLDDFAELRRFADAHGLALDRANVAAGTAVLSGPVDAINRAFGVELRHFDHPDGSYRSYLGEVTVPASIAPMIEAVLGLDTRPVARPHFRMQRRAEGGFEARSQAAAPTAYTPLDVAQAYQFPEGLDGQGQCIAIIELGGGYDEASLAQYFASLGVPAPQVVSVSVDGASNQPTGDPSGPDGEVELDIEVAGALAPGAKFAVYFAPDTDAGFLDAITTAIHDPTLKPSVVSISWSGPEDSWTSAAIAAMNRAFLDAAALGVTVLAAAGDSGSTGGEQDGLYHVHFPAASPYVLACGGTRLVASGGRIAQETVWNDGPDGGATGGGVSRIFPLPAWQEHANVPPSANPGASSGRGVPDLAGNADPATGYEVVIDGEATVIGGTSAVAPLFAALVARINQKLGKAVGYLNPTLYQLPADVFHDITEGNNDIANRAQIYQAGPGWDPCTGLGSPIGVRLLQALLPSASQPQPGSTENLYFQSGALEHHHHHH
B9: Kumamolysin-As D358G (protein)
chain: MSDMEKPWKEGEEARAVLQGHARAQAPQAVDKGPVAGDERMAVTVVLRRQRAGELAAHVERQAAIAPHAREHLKREAFAASHGASLDDFAELRRFADAHGLALDRANVAAGTAVLSGPVDAINRAFGVELRHFDHPDGSYRSYLGEVTVPASIAPMIEAVLGLDTRPVARPHFRMQRRAEGGFEARSQAAAPTAYTPLDVAQAYQFPEGLDGQGQCIAIIELGGGYDEASLAQYFASLGVPAPQVVSVSVDGASNQPTGDPSGPDGEVELDIEVAGALAPGAKFAVYFAPNTDAGFLDAITTAIHDPTLKPSVVSISWGGPEDSWTSAAIAAMNRAFLDAAALGVTVLAAAGDSGSTGGEQDGLYHVDFPAASPYVLACGGTRLVASGGRIAQETVWNDGPDGGATGGGVSRIFPLPAWQEHANVPPSANPGASSGRGVPDLAGNADPATGYEVVIDGEATVIGGTSAVAPLFAALVARINQKLGKAVGYLNPTLYQLPADVFHDITEGNNDIANRAQIYQAGPGWDPCTGLGSPIGVRLLQALLPSASQPQPGSTENLYFQSGALEHHHHHH
B10: Kumamolysin-As T357A (protein)
chain: MSDMEKPWKEGEEARAVLQGHARAQAPQAVDKGPVAGDERMAVTVVLRRQRAGELAAHVERQAAIAPHAREHLKREAFAASHGASLDDFAELRRFADAHGLALDRANVAAGTAVLSGPVDAINRAFGVELRHFDHPDGSYRSYLGEVTVPASIAPMIEAVLGLDTRPVARPHFRMQRRAEGGFEARSQAAAPTAYTPLDVAQAYQFPEGLDGQGQCIAIIELGGGYDEASLAQYFASLGVPAPQVVSVSVDGASNQPTGDPSGPDGEVELDIEVAGALAPGAKFAVYFAPNTDAGFLDAITTAIHDPTLKPSVVSISWGGPEDSWTSAAIAAMNRAFLDAAALGVTVLAAAGDSGSADGEQDGLYHVDFPAASPYVLACGGTRLVASGGRIAQETVWNDGPDGGATGGGVSRIFPLPAWQEHANVPPSANPGASSGRGVPDLAGNADPATGYEVVIDGEATVIGGTSAVAPLFAALVARINQKLGKAVGYLNPTLYQLPADVFHDITEGNNDIANRAQIYQAGPGWDPCTGLGSPIGVRLLQALLPSASQPQPGSTENLYFQSGALEHHHHHH

The target in the data set is T1, fluorescently quenched α-gliadin ….
Turning to B1, the Fold Change in Activity of PQ Hydrolysis Relative to Wild Type Kumamolysin-As came out at 62 fold. B2 had a Fold Change in Activity of PQ Hydrolysis Relative to Wild Type Kumamolysin-As of 3 fold. Turning to B3, the Fold Change in Activity of PQ Hydrolysis Relative to Wild Type Kumamolysin-As was determined as 4 fold. B4: the Fold Change in Activity of PQ Hydrolysis Relative to Wild Type Kumamolysin-As worked out at 120 fold. On to B5, for which the Fold Change in Activity of PQ Hydrolysis Relative to Wild Type Kumamolysin-As worked out at 6 fold. As for B6, the figure is 5 fold.

As to B7, the Fold Change in Activity of PQ Hydrolysis Relative to Wild Type Kumamolysin-As amounted to 2 fold. B8 registered a Fold Change in Activity of PQ Hydrolysis Relative to Wild Type Kumamolysin-As of 93 fold. As for B9, the figure is 3 fold. As for B10, the figure is 2 fold.
